One substance from patent US8974774 can be followed below.

This experiment has as its target carcinoembryonic antigen (human) (UniProt P06731).
Sequence of UniProt P06731 (P06731 35-702): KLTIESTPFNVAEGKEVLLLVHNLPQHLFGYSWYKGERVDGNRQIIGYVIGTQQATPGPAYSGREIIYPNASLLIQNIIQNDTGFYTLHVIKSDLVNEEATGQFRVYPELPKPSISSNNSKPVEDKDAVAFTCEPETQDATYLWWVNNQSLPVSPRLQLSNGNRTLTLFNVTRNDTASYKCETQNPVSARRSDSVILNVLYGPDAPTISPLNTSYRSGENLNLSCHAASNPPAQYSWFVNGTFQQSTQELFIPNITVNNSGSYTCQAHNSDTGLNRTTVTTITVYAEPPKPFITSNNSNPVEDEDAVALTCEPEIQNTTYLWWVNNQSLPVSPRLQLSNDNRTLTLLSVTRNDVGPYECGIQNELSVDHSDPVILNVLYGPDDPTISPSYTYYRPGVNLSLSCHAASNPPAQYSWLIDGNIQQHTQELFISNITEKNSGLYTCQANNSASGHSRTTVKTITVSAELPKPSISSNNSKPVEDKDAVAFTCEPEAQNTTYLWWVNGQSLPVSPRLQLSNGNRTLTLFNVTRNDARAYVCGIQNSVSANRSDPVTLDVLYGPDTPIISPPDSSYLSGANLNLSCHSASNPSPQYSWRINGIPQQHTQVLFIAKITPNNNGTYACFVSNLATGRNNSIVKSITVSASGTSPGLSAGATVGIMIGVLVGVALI

“Monoclonal antibody to carcinoembryonic antigen (CEA; clone CD66e, US Biological) covalently conjugated to anionic polyaspartate (3K MW)”: the percent of colon carcinoma cells positive for fluorescein signal came out at 87.6%.
